Molecular target: IL-2 receptors (high-affinity IL-2Rαβγ or intermediate-affinity IL-2Rβγ) on PBMC lymphocytes (UniProt P01589)
Assay: cell-based or functional assay

Sequence of IL-2 receptors (high-affinity IL-2Rαβγ or intermediate-affinity IL-2Rβγ) on PBMC lymphocytes (P01589 22-272 limits assumed, chain 1 of 3): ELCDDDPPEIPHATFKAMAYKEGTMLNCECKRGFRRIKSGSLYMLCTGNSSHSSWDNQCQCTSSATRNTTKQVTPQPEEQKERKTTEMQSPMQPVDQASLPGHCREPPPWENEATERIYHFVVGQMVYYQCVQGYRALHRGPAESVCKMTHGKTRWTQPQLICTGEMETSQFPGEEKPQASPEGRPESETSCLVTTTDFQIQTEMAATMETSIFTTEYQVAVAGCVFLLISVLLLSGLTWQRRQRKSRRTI
Sequence of IL-2 receptors (high-affinity IL-2Rαβγ or intermediate-affinity IL-2Rβγ) on PBMC lymphocytes (P14784 27-551 limits assumed, chain 2 of 3, further chain): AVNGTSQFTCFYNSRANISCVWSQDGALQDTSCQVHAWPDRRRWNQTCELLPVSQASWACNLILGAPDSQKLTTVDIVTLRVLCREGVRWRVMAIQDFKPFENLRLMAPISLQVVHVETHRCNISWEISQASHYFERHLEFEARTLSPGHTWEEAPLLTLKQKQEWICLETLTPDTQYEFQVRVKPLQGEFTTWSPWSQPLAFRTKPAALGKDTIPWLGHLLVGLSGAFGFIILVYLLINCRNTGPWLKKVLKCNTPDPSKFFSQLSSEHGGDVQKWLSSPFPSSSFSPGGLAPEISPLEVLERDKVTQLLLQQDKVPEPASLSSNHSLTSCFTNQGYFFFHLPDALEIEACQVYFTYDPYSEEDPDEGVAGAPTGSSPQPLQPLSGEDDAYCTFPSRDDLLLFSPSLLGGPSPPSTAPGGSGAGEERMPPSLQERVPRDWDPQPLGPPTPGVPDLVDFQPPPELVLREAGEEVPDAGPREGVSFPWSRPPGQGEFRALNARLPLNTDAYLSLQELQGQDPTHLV
Sequence of IL-2 receptors (high-affinity IL-2Rαβγ or intermediate-affinity IL-2Rβγ) on PBMC lymphocytes (P31785 23-369 limits assumed, chain 3 of 3, further chain): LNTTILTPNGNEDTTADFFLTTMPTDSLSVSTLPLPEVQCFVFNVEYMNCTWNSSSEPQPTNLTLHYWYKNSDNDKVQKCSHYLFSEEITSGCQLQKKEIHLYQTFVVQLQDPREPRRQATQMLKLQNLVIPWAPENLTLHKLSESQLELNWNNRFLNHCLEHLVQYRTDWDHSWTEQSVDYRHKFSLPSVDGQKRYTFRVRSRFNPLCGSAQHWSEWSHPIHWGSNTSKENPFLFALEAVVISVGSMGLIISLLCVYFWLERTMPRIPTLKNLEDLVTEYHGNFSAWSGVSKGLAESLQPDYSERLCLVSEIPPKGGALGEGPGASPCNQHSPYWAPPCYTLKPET

EC50, induction of STAT5 phosphorylation (in vitro potency): 0.01 nM
Substance: XENP27193, an Fc-IL-2(V91K/C125A) fusion as described in WO 2014/153111 (from UniProt P60568 21-153) (Fc fusion)

From patent US20250092108A1
